Measured values as given in the Human Domainome abundance scans (Beltran et al. 2025).
± gives the uncertainty stated by the source.

B1: Chromodomain-helicase-DNA-binding protein 4, residues 365 to 417; numbered along this chain, Q14839 (parent)
chain: YETDHQDYCEVCQQGGEIILCDTCPRAYHMVCLDPDMEKAPEGKWSCPHCEKE

Variants of: B1
Experiment: abundance fitness (aPCA) (normalised: wild type 0, dead -1); higher = more abundant; growth selection in yeast, the domain comes from the species named
Conditions: Homo sapiens

Variant | abundance fitness
I18V | -0.161 ± 0.1
I18R | -0.06 ± 0.086
I18P | -0.369 ± 0.14
I18W | -0.218 ± 0.1
I18D | -0.058 ± 0.14
I18G | -0.042 ± 0.087
I18E | 0.046 ± 0.15
I18Y | -0.231 ± 0.17
I18M | 0.022 ± 0.11
I18F | 0.158 ± 0.16
I18Q | -0.14 ± 0.14
I18A | -0.123 ± 0.12
I18T | 0.221 ± 0.15
I18H | -0.408 ± 0.3
I18S | -0.081 ± 0.1
I18C | -0.216 ± 0.12
I18K | -0.305 ± 0.18
Q6S | 0.026 ± 0.12
Q6E | -0.306 ± 0.36
Q6W | -0.347 ± 0.097
Q6Y | -0.243 ± 0.2
Q6V | -0.347 ± 0.095
Q6C | -0.212 ± 0.12
Q6G | -0.384 ± 0.13

Variant | abundance fitness
Q6F | -0.606 ± 0.15
Q6L | -0.239 ± 0.096
Q6P | -0.161 ± 0.2
Q6H | -0.359 ± 0.31
I19P | -0.849 ± 0.19
I19T | -0.101 ± 0.12
I19W | -0.199 ± 0.11
I19F | -0.404 ± 0.3
I19D | -0.154 ± 0.15
I19L | -0.145 ± 0.11
I19Y | -0.629 ± 0.41
I19R | 0.022 ± 0.094
I19Q | -0.124 ± 0.18
I19G | -0.137 ± 0.079
I19C | -0.25 ± 0.19
I19E | -0.07 ± 0.13
I19A | 0.085 ± 0.097
I19N | -0.097 ± 0.22
I19K | 0.127 ± 0.14
I19S | -0.143 ± 0.13
I19M | 0.277 ± 0.17
G15D | 0.176 ± 0.14
G15T | -0.003 ± 0.14
G15W | -0.216 ± 0.14

Variant | abundance fitness
G15P | -0.136 ± 0.23
G15C | -0.524 ± 0.17
G15Q | -0.046 ± 0.17
G15E | -0.162 ± 0.12
G15I | -0.664 ± 0.33
G15S | -0.013 ± 0.11
G15R | 0.075 ± 0.095
G15Y | -0.571 ± 0.23
G15K | -0.033 ± 0.25
G15F | -0.178 ± 0.21
G15L | -0.052 ± 0.12
G15N | -0.328 ± 0.3
G15A | -0.028 ± 0.12
G15M | -0.028 ± 0.18
C21P | -1.11 ± 0.24
C21T | -0.467 ± 0.19
C21Q | -0.468 ± 0.27
C21A | -0.882 ± 0.14
C21W | -0.738 ± 0.14
C21L | -1.06 ± 0.15
C21I | -0.802 ± 0.36
C21V | -0.877 ± 0.13
C21E | -0.893 ± 0.19
C21R | -0.743 ± 0.13

Variant | abundance fitness
C21S | -0.889 ± 0.17
C21K | -0.734 ± 0.17
C21N | -0.983 ± 0.27
C21D | -0.657 ± 0.21
C21Y | -0.765 ± 0.23
C21F | -1.11 ± 0.26
C21M | -0.911 ± 0.17
Q14C | -0.337 ± 0.12
Q14L | -0.347 ± 0.11
Q14G | -0.013 ± 0.11
Q14F | 0.06 ± 0.14
Q14P | -0.826 ± 0.19
Q14I | -0.084 ± 0.15
Q14W | -0.342 ± 0.13
Q14S | -0.239 ± 0.095
Q14E | 0.223 ± 0.28
Q14H | -0.23 ± 0.26
Q14Y | -0.338 ± 0.23
Q14R | 0.162 ± 0.083
Q14K | 0.002 ± 0.16
Q14N | -0.362 ± 0.16
Q14A | -0.307 ± 0.17
V11L | 0.134 ± 0.094
V11G | 0.129 ± 0.084

Variant | abundance fitness
V11S | -0.085 ± 0.1
V11Y | 0.008 ± 0.14
V11Q | -0.268 ± 0.18
V11N | 0.223 ± 0.16
V11K | 0.127 ± 0.13
V11A | -0.098 ± 0.12
V11P | -0.257 ± 0.15
V11W | -0.019 ± 0.12
V11T | 0.195 ± 0.13
V11M | 0.223 ± 0.15
V11I | -0.064 ± 0.1
V11C | 0.063 ± 0.12
V11F | 0.262 ± 0.14
V11H | 0.155 ± 0.2
G16C | -0.32 ± 0.2
G16T | 0.242 ± 0.12
G16I | -0.08 ± 0.22
G16A | -0.114 ± 0.1
G16P | -0.347 ± 0.12
G16F | -0.469 ± 0.26
G16K | 0.026 ± 0.16
G16R | 0.009 ± 0.082
G16Q | 0.036 ± 0.14
G16D | 0.29 ± 0.17

Variant | abundance fitness
G16E | 0.12 ± 0.12
G16M | -0.095 ± 0.16
G16V | -0.341 ± 0.1
G16L | -0.016 ± 0.1
G16Y | -0.262 ± 0.32
G16N | 0.144 ± 0.22
G16S | 0.069 ± 0.098
G16H | -0.12 ± 0.2
T23S | 0.033 ± 0.12
T23M | -0.297 ± 0.18
T23N | -0.201 ± 0.24
T23P | -0.922 ± 0.23
T23R | -0.363 ± 0.11
T23I | -0.236 ± 0.14
T23H | 0.312 ± 0.2
T23K | -0.219 ± 0.2
T23Q | -0.107 ± 0.18
T23W | -0.327 ± 0.17
T23D | -0.052 ± 0.14
T23L | -0.107 ± 0.12
T23Y | -0.296 ± 0.18
T23C | -0.257 ± 0.13
T23F | -0.099 ± 0.15
T23V | -0.231 ± 0.12

Variant | abundance fitness
T23G | -0.189 ± 0.098
T23A | -0.459 ± 0.13
C12R | -0.87 ± 0.1
C12D | -0.944 ± 0.28
C12G | -0.799 ± 0.1
C12W | -0.948 ± 0.13
C12H | -0.948 ± 0.45
C12K | -0.775 ± 0.17
C12N | -0.605 ± 0.28
C12F | -0.529 ± 0.37
C12V | -0.887 ± 0.1
C12A | -0.952 ± 0.13
C12Q | -0.49 ± 0.27
C12T | -0.46 ± 0.13
C12L | -0.962 ± 0.11
C12Y | -1.07 ± 0.15
C12M | -0.643 ± 0.14
C12S | -0.977 ± 0.12
C12E | -0.683 ± 0.12
C12I | -0.342 ± 0.23
E10A | -0.155 ± 0.1
E10N | -0.182 ± 0.24
E10H | -0.383 ± 0.17
